According to article PMC8028696 (Journal of Molecular Biology, 2021):

B1: IgG 15036 (antibody, V domains shown)
VH: EVQLVESGGGLVQPGGSLRLSCAASGFDFTAYDIHWVRQAPGKGLEWVAGISASGGYTAYADSVKGRFTISADTSKNTAYLQMNSLRAEDTAVYYCARDGFHSYALDYWGQGTLVTVSS
VL: DIQMTQSPSSLSASVGDRVTITCRASQSVSSAVAWYQQKPGKAPKLLIYSASSLYSGVPSRFSGSRSGTDFTLTISSLQPEDFATYYCQQWYSLFTFGQGTKVEIK
B2: IgG 15046 (antibody, V domains shown)
VH: EVQLVESGGGLVQPGGSLRLSCAASGFDFGSYAMHWVRQAPGKGLEWVAGIYASGGYTDYADSVKGRFTISADTSKNTAYLQMNSLRAEDTAVYYCARGWSYYWGFDYWGQGTLVTVSS
VL: DIQMTQSPSSLSASVGDRVTITCRASQSVSSAVAWYQQKPGKAPKLLIYSASSLYSGVPSRFSGSRSGTDFTLTISSLQPEDFATYYCQQYDYGLFTFGQGTKVEIK

Experiments:
[1] = molecular target: T1, Trimeric SARS-CoV-2 S-protein (SARS-CoV-2 (P0DTC2 reference)); strain …, UniProt P0DTC2, biotin (site-specific, BirA, on the AviTag)); test: ELISA
[2] = molecular target: T1, Trimeric SARS-CoV-2 S-protein; test: BLI

Binder | EC50 [1] [nM] | Kd [2] [nM]
B1 | 0.5 ± 0.1 | 0.1 ± 0.1
B2 | 1.3 ± 0.3 | 2.3 ± 0.6
